From US20130243775A1

Target: interleukin-4 receptor (IL-4R) (UniProt P24394)
Experiment: cell-based or functional assay

UniProt P24394, sequence (P24394 26-825 limits assumed): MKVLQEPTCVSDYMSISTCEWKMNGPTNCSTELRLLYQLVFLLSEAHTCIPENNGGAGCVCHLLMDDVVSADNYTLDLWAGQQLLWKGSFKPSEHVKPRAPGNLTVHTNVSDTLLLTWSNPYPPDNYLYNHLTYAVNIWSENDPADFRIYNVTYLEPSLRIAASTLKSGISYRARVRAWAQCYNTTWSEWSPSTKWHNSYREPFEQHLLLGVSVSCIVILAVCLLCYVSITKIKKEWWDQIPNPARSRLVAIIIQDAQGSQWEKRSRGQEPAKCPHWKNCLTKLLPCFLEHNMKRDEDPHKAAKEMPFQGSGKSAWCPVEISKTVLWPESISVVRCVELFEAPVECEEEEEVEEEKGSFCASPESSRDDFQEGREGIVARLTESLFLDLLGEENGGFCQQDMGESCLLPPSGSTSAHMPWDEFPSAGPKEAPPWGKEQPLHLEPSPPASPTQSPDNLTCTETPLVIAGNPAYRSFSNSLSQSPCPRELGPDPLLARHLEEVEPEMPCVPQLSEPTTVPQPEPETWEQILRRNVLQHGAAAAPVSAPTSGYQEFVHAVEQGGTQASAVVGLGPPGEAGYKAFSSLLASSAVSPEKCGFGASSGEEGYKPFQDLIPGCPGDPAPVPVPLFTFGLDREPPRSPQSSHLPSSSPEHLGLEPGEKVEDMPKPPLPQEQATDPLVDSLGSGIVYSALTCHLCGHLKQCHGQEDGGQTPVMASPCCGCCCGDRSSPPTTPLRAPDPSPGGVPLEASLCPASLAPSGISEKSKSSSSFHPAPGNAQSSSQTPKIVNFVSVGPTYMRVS

B1: anti-IL-4R:anti-CD63 conjugate (streptavidin-conjugated anti-IL-4R antibody combined 1:1 with biotinylated anti-CD63 antibody MEM-259) (protein, part only; not given: anti-CD63 antibody, constant regions, part only)
VH: EVQLVESGGGVVQPGRSLRLSCVASGFTFSDYGMHWVRQAPGKGLEWVAVIWYDGSIKYFRDSVKGRFTISRDNSKNTLYLQMNSLRVEDTAHYYCAKESSSWYFYHGLDVWGQGTMVTVSS
VL: EIVMTQSPLSLPVSPGEPASISCRSNQSLLHSNGNNYLAWYLQKPGQSPHLLIYLGSNRASGVPDRFSGSGSGTDFTLKISRVEAGDVGTYFCMQSLQAPPFTFGPGTKVEIKR
modifications: antibody is streptavidin-conjugated (site not stated)
attenuation of IL-4R activity relative to the control constructs (STAT6-luciferase reporter): > 10%
